2 molecules from patent publication CN1886424A (dated 2006) can be followed below.

By Kd is commonly meant the constant that tells how readily two partners part at equilibrium. Low values mean a tighter complex, high ones a looser complex.

Experiment [1] addresses T1, 纯化的/生物素化的全长人IGF-I受体 (purified, biotinylated full-length human IGF-I receptor) (human, UniProt P08069 31-1367, biotinylated with PEO-maleimide-biotin (Kd and competition ELISAs); unmodified when coated directly).
T1 construct: mature; also called 生物素化的IGF-I受体; 纯化的人IGF-I受体
The experiment in a line: ELISA titration of the Fab on human IGF-I receptor. On the technique in general: An ELISA detects its analyte on a solid surface through an enzyme-linked reagent.

Experiment [2] deals with 人肿瘤细胞上的人IGF-I受体 (endogenous human IGF-I receptor of human tumour cells: MCF-7, NCI-H838, SaOS-2 and others) (human) (UniProt P08069). Kind of experiment: cell-based or functional assay.
Experiment [3] has as its target T1, 纯化的/生物素化的全长人IGF-I受体 (purified, …). The experiment in a line: ELISA titration on biotinylated human IGF-I receptor captured on streptavidin, one-site non-linear regression.
The target in experiment [4] is 过量表达于3T3样细胞上的人Y1251F IGF-I受体 (human IGF-I receptor with Y1251F mutation on 3T3-like cells) (human) (UniProt P08069). Kind of experiment: cell ELISA on dried cells overexpressing human Y1251F IGF-I receptor, 12 min colour development.
Experiment [5] concerns the target 人肿瘤细胞上的人IGF-I受体 (endogenous human IGF-I receptor of human tumour cells: MCF-7, NCI-H838, SaOS-2 and others) (human) (UniProt P08069). Kind of experiment: displacement of biotin-IGF-I from MCF-7 cells at 4℃, 2 h; capture ELISA.
Experiment [6] has the same target. The experiment in a line: displacement of biotin-IGF-I from MCF-7 cells at 37℃, 30 min, 10-100 μg/mL antibody; capture ELISA.

T1 sequence (P08069 31-1367 limits assumed): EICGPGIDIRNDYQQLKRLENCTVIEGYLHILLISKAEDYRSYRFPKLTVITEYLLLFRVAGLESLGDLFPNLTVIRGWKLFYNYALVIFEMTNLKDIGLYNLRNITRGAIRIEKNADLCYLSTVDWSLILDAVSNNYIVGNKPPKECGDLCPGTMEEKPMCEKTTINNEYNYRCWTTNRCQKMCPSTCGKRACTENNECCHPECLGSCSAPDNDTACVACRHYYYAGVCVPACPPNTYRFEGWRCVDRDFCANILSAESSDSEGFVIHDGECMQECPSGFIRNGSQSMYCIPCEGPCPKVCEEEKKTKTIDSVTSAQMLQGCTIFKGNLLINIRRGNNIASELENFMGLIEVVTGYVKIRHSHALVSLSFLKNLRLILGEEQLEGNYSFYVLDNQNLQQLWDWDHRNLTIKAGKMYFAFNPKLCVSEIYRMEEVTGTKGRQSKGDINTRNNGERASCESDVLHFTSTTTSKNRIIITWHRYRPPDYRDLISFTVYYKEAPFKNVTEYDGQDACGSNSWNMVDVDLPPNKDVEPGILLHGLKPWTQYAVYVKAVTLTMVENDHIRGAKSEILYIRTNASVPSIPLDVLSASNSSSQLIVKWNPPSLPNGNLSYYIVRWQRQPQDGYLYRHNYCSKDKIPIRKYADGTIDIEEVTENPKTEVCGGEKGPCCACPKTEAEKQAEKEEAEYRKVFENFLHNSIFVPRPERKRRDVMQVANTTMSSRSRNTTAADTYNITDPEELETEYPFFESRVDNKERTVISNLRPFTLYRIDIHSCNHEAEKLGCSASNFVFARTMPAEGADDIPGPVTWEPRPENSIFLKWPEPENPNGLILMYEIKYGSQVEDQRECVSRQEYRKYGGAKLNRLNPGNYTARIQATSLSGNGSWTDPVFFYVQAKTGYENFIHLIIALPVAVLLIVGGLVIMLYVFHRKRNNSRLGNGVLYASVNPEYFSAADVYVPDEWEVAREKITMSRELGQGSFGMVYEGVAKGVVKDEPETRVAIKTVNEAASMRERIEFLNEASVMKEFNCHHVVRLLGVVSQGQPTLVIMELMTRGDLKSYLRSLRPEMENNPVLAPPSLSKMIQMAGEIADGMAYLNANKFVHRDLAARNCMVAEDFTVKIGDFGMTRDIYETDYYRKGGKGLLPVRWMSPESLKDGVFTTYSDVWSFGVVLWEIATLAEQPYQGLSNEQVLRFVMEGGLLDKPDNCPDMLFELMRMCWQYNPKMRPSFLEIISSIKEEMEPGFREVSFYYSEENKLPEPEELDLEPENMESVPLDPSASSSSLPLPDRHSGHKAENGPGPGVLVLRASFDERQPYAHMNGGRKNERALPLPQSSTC

B1: EM164抗体的Fab片段 (Fab fragment of EM164, papain digest) (Fab, V domains shown)
VH: QVQLQQSGAELVKPGASVKLSCKASGYTFTSYWMHWVKQRPGQGLEWIGEINPSNGRTNYNEKFKRKATLTVDKSSSTAYMQLSSLTSEDSAVYYFARGRPDYYGSSKWYFDVWGAGTTVTVSS
VL: DVLMTQTPLSLPVSLGDQASISCRSSQSIVHSNVNTYLEWYLQKPGQSPKLLIYKVSNRFSGVPDRFSGSGSGTDFTLRISRVEAEDLGIYYCFQGSHVPPTFGGGTKLEIKR
notes: also called EM164 Fab
Regarding B1, in experiment [1], the Kd was 0.3 nM.

B2: 鼠抗IGF-I受体抗体EM164 (murine anti-IGF-I receptor antibody EM164) (antibody, V domains shown)
VH: QVQLQQSGAELVKPGASVKLSCKASGYTFTSYWMHWVKQRPGQGLEWIGEINPSNGRTNYNEKFKRKATLTVDKSSSTAYMQLSSLTSEDSAVYYFARGRPDYYGSSKWYFDVWGAGTTVTVSS
VL: DVLMTQTPLSLPVSLGDQASISCRSSQSIVHSNVNTYLEWYLQKPGQSPKLLIYKVSNRFSGVPDRFSGSGSGTDFTLRISRVEAEDLGIYYCFQGSHVPPTFGGGTKLEIKR
notes: Purified from hybridoma; also called EM164抗体; muEM164
On to B2, for which, in experiment [2], the MCF-7 cell cycle, percent of cells in G0/G1 phase with IGF-I (20 ng/mL) plus EM164 (20 μg/mL); 50% without EM164 turned out to be 77%; the MCF-7 cell cycle, percent of cells in S phase with IGF-I (20 ng/mL) plus EM164 (20 μg/mL); 41% without EM164 worked out at 9%; the percent inhibition of IGF-I-stimulated growth in serum-free medium, MTT assay, A 375 (melanoma) was 90%; the percent inhibition of IGF-I-stimulated growth in serum-free medium, MTT assay, A431 (epidermoid) was determined as 85%. Further, in experiment [2], the percent inhibition of IGF-I-stimulated growth in serum-free medium, MTT assay, Calu-6 was 85%; the percent inhibition of IGF-I-stimulated growth in serum-free medium, MTT assay, Colo 205 (colon) worked out at 50%; the percent inhibition of IGF-I-stimulated growth in serum-free medium, MTT assay, HT-29 came to 60%; the percent inhibition of IGF-I-stimulated growth in serum-free medium, MTT assay, SK-Mel-37 came to 85%. In experiment [2], this molecule displayed a percent inhibition of IGF-I-stimulated growth in serum-free medium, MTT assay, SK-N-SH (neuroblastoma) of 85%. Besides, the Kd in experiment [3] came out at 0.1 nM. This molecule came in with an absorbance (cell ELISA signal) (absorbance units) in experiment [4] of 0.88. The same molecule returned a percent displacement of pre-bound biotinylated IGF-I in experiment [5] of 50%. Also, in experiment [6], the percent displacement of pre-bound biotinylated IGF-I turned out to be 90%.
